According to US20250282887A1 (Amgen, published 2025):
Where a chain is given by its changes, count along the chain named.

T1: human MAGEB17 (human, UniProt A8MXT2 1-336)
T1 construct: whole, on cells; FFPE cell pellets; also called MAGE-17
T1 sequence (looked up): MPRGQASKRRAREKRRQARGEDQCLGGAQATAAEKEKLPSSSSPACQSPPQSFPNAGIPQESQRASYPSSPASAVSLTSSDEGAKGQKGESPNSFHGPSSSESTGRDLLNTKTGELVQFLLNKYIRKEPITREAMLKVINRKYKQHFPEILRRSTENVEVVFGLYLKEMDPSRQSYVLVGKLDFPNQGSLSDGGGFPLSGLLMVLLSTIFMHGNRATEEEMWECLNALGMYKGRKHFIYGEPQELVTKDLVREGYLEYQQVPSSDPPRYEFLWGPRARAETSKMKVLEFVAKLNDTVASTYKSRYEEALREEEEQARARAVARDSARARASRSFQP

T2: Human MAGEB2 (Melanoma-associated antigen B2) (human, UniProt O15479 1-319)
T2 construct: Intracellular antigen detected by IHC in FFPE material: CHO cells transfected with human MAGEB2 (mCherry vector with Myc/DDK tags, or ORF without tags)
T2 sequence: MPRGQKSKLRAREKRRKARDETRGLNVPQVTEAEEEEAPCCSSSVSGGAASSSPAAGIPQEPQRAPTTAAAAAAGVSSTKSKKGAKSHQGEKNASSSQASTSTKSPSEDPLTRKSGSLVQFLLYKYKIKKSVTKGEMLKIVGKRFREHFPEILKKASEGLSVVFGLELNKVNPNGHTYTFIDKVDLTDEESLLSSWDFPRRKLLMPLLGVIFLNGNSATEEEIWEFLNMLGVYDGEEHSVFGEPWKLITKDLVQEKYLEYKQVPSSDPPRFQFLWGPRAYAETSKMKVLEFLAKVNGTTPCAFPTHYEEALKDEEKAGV

B1: 1I14 (antibody, V domains shown)
VH: QSVEESGGRLVTPGTPLTLTCTISGFSLSSYAMSWVRQAPGKGLEWIGSIGGGGSAVYASWAKGRFTISKTSTTVDLRITSPTTEDTAMYFCGRGFYSIDLWGPGTLVTVSS
VL: DVVMTQTPASVEATVGGTVTIKCQSSQSVYDNNALAWYQQNAGQRPRLLIYGASTLASGVPSRFSASGSGTEFTLTISDLECADAATYYCQCTYYVSSYQNDFGGGTEVVVKG
notes: also called MAGE-B2 (1i14)
B2: 1C3 (antibody, V domains shown)
VH: QSLEESGGGLVQPEGSLTLTCTAFGVTLTNYYICWVRQAPGKGLEWVGCIDNANGRTYYASWAKGRFTISKTSSTTGTLQMTSLTAADTATYFCARSLATPLWGPGTLVTVSS
VL: DIVMTQTPSSVEAAVGGTVTIKCQASQNISSYLAWYQQKPGQPPKLLIYRASTLASGVPSRFKGSGSGTQFTLTISDLECADAATYYCQSYDDSRSSNFFYAFGGGTEVVVKG
notes: also called MAGE-B2 (IC3); anti-MAGEB2 antibody 1C3
B3: 4G17 (antibody, IgG1, V domains shown)
VH: B2 VH with F24S, T29S, V47I, A53V
VL: DIVMTQTPASVEAAVGGTVTIKCQASQNIDSYLAWYQQKPGQPPKLLIYRASTLASGVPSRFKGSGSGTEFTLTISDLECADAATYYCQSYDDSRSSSFFYGFGGGTEVVVK
notes: Rabbit monoclonal IgG1; Tested as supernatant and as small batch purified antibody; also called MAGE-B2 (4G17); anti-MAGEB2 antibody 4G17
B4: 1J15 (antibody, IgG1, V domains shown)
VH: B2 VH with V26F, T29N, V47I, G48A, G77V, A99S
VL: B3 VL with N28S, D30S, A34S, K63R, E70Q, R95S, S96D, S97N, S98N, K112R
notes: Rabbit monoclonal IgG1; Tested as supernatant and as small batch purified antibody; also called MAGE-B2 (IJ15); anti-MAGEB2 antibody 1J15

Biological target: T1, human MAGEB17
Test: IHC, FFPE CHO cells transfected with human MAGEB17
Protocol: (§1) FFPE samples were sectioned at 4 μm and mounted on positive charged glass slides. After mounting, paraffin sections were air-dried at room temperature. FFPE TMA samples were received as freshly sectioned and mounted on glass slides. The fully automated IHC assay was performed on a Discovery Ultra Stainer (Ventana Medical Systems, Tucson, AZ) using Ventana Anti-Rabbit HQ (cat #760-4815), Ventana Anti-HQ HRP (cat #760-4820), and Ventana Antibody Diluent with Casein (cat #760-219) (Ventana Medical Systems, Tucson, AZ). The slides were baked on the Discovery Ultra Stainer at 60° C. for 8 minutes, de-paraffinized with Ventana Discovery wash (cat #950-510) for 3 cycles (8 minutes each) at 69° C., and underwent cell conditioning (target retrieval) at 95° C. for 16 minutes (for cell arrays) or 32 minutes (tissues or TMAs) in CC1 buffer (cat #950-500). Following this, slides were incubated with Background Sniper (cat #BS966M, Biocare Medical, Pacheco, CA) in a Ventana Option Prep kit (cat #771-751) for 28 minutes, incubated with CM inhibitor (a part of the Ventana DAB kit cat #760-159) for 12 minutes, and incubated for 1 h at RT with MAGE-B2 antibody diluted with Ventana diluent with Casein in a Ventana Prep kit (cat #770-001) (working concentration at 0.1 μg/ml for cell pellet, or 1-5 ug/ml for tissues) or with a matched concentration of isotype control Rabbit IgG1 antibody. Following this, slides were incubated with the Ventana Anti-Rabbit HQ (cat #760-4815) for 28 minutes at RT, Ventana Anti-HQ HRP (cat #760-4820) for 28 minutes at RT, and signals detected with Ventana DAB chromogen kit (cat #760-159) for 5 minutes at RT. Slides were counterstained with Ventana Hematoxylin II (cat #5266726001) for 8 minutes and Ventana Bluing reagent (cat #526676900) for 4 minutes. Slides were coverslipped and digitized using an Aperio AT2 scanner (Leica Biosystems Inc, Buffalo Grove, IL).

binding result	Binder
no binding (tested: 0.1 µg/ml)	B1
no binding (tested: 0.1 µg/ml)	B2
no binding (tested: 0.1 µg/ml)	B3
no binding (tested: 0.1 µg/ml)	B4

Biological target: T2, Human MAGEB2 (Melanoma-associated …)
Test: IHC on FFPE UACC-257 cells (endogenous MAGEB2)
Protocol: as §1

IHC % Frequency	IHC Intensity	Binder
0%		B1
0%		B2
0%	0	B3
0%	0	B4
